Usually EC50 stands for the concentration giving half of the maximal effect. As usually defined, the Kd is the equilibrium constant for the complex coming apart.

Changes are numbered by the printed parent chain. Where “and” joins values, the source holds several entries; their conditions need not be identical. Equal values may be shown once.

The labels stand for the following.
T1: monkey antigen protein (monkey CD112R, Uniprot ID: A0A2K5WVV8) (monkey, UniProt A0A2K5WVV8 41-171)
T1 sequence: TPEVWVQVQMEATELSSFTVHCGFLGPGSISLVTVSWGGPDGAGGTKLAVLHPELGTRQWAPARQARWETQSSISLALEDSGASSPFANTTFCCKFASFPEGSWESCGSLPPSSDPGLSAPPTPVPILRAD

T2: human CD112R antigen protein huCD112R-His (Acro Biosysterm, PVG-H52H4) (human, UniProt Q6DKI7 41-171)
T2 construct: purchased; also called human antigen protein; not shown: His tag
T2 sequence (looked up): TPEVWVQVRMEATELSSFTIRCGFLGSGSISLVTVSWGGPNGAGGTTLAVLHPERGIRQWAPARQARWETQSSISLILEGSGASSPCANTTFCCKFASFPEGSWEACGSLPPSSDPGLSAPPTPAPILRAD

T3: human CD112R on GS-J2C/CD112R effector cells (human, UniProt Q6DKI7 1-326)
T3 sequence (looked up): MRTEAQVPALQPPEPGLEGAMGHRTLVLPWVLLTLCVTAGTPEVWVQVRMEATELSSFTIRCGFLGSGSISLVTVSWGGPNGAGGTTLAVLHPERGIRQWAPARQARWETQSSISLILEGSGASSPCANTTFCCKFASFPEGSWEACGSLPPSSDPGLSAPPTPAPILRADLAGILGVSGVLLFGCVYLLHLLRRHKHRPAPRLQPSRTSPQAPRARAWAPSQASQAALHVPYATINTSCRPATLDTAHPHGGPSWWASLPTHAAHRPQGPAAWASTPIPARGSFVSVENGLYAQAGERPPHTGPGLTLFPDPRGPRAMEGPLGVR

B1: C152 (antibody, human IgG1, kappa, V domains shown)
VH: QVQLQQSGTILARPGASVKMSCRASDYTFTDYWIQWIKQRPGQGLEWIGAIFPENGDTRYTQKFKGRATLTADKSSSTAYMQVNSLTSEDSAVYYCATFINYVDYWGQGTTLTVSS
VL: QIVLIQSPAIMSASPGEKVTMTCSASSSVNNIHWYQQKSGTSPKRWIYDTTKLTSGVPARFSGSGSGTSYSLTISSMEAEDAATYYCQQWNINPYTFGGGTKLEIKR
B2: C114 (antibody, human IgG1, kappa, V domains shown)
VH: QVQLQQSGAELVRPGTSVKMSCKAAGYTFTNSWINWVKQRPGHGLEWIGDIYPGNTFPNYNEKFKGKATLTADTSSSTAYMQLSSLTSEDSAVYYCTGGYFDVWGTGTTVTVSS
VL: DIVMTQSPSSLSVSAGEKVTMSCKSSQSLLNSGNQKNFLAWYQQKPGQPPKLLIFGASTRQSGVPDRFTGSGSGTDFTLTISSVQAEDLAVYYCQNDHSYPYTFGGGTKLEMKR
B3: C132 (antibody, human IgG1, kappa, V domains shown)
VH: QVQLQQSGAELMKPGSSVNLSCKATDYTFTDYWINWVKQRPGHGLEWIGEILPGSVTTNYNEKFRGKATFTADTSSNTAYMQLSSLTSEDSAVYFCARGSDYSYYAMDYWGQGTSVTVSS
VL: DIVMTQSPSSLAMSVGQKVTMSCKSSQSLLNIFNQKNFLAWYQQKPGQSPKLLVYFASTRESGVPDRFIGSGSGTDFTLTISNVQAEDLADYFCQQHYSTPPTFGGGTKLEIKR
B4: C64 (antibody, human IgG1, kappa, V domains shown)
VH: EVMLVESGGDLVKPGGSLKLSCAASGFTFSSYFMSWVRQTPEKRLEWVATISGGGDKTYYLDILKGRFTISRDNAKNTLYLQMSSLRSEDTALYYCARHEDYAWYAMDYWGQGTSVTVSS
VL: QIVLTQSPAIMSASPGEKVTMTCSASSSVNYIYWYQQKPGSSPRLLIYDTSNLASGVPVRFSGSGSGTSYSLTISRMEAEDAATYYCQQWSSYPLTFGAGTKLELKR
B5: C63 (antibody, human IgG1, kappa, V domains shown)
VH: EVMLVESGGGLVKPGGSLKLSCAASGFIFSSYIMSWVRQTPEKRLEWVATIRGGGGNTYYLDSVKGRFIISRDNAKNNLYLQMSSLRSEDTALYYCARHEDYEWYAMDNWGQGTSVTVSS
VL: B4 VL with M21L, S26R, N30S, I32M, R44K
B6: C138 (antibody, human IgG1, kappa, V domains shown)
VH: EVQLVESGGGLVKPGGSLKLSCAASGFTFSSYAMSWVRQTPAKRLEWVATITSGDIRTYYPDTVKGRFTISRDNAKNTLYLQMRSLRSEDTAMYYCVGHDDFHFYAMDYWGQGTSVTVSS
VL: B4 VL with N30S, I32L, I74L
B7: C62 (antibody, human IgG1, kappa, V domains shown)
VH: EVMLVESGGGLVKPGGSLKLSCAASGFSFSSYSMSWVRQTPEKRLECVATIGGVGGNTYYPDSVKGRFSISRDNAKNTLYLQMSSLRSEDTALYYCARHEDYYYYAMDYWGQGTSVTVSS
VL: B4 VL with S26N, S28T, N30S, S71Y, Y93F, L95F, A99S, L105I
B8: C71 (antibody, human IgG1, kappa, V domains shown)
VH: B4 VH with M3I, D10G, L18R, K57N, L61P, I63S, L64V, A103E
VL: B4 VL with A13T, N30S, S91T
B9: C124 (antibody, human IgG1, kappa, V domains shown)
VH: EVQLVESGGGLVKPGGSLKLSCAASGFTFSSFAMSWVRQTPAKRLESVATINNGGINTYYPDTVKGRFTVSRDNAKNTLYLQMSSLRSEDTAMYYCARHDDFLYYAMDYWGQGTSVTVSS
VL: B4 VL with N30S, I32M, S91T
B10: C67 (antibody, human IgG1, kappa, V domains shown)
VH: EAQLQQSGPELVKPGASVKISCKASGYTFTDYYMNWVKQSHGKSLDWIGDINPDNGGSTYNQKFKGKATLTVDKSSSTAYMELRSLTSEDSAVYYCSASGPPYVLLDYWGQGTSVIVSS
VL: DIQMTQSPASLSASVGETVTITCQTSENIYSYLAWYQQKQGKSPQLLVYNTQTLAEGVPSRFSGSRSGAQFSLKINSLQPEDFGSYYCQHHYGVPLTFGAGTKLELKR
B11: C55 (antibody, human IgG1, kappa, V domains shown)
VH: EVQLQQSGPELVKPGASVKISCKASGYTFTDYYMSWVKQSHGKSLEWIGDVNPNNGDTSYNQKFKGKATLTVDKSSSTAYMELRSLTSEDSAVYYCAASGLPYVLMDYWGQGTSVTVSS
VL: B10 VL with Q24R, T25A, Y30N, Q52K, A55T, G57D, R66G, A69T, V94T, A100G
B12: C57 (antibody, human IgG1, kappa, V domains shown)
VH: EVQLQQSGPVLVKPGASVKMSCKASGYIFTDYYMHWVKQSHGKSLEWIGIINPYNGDTSYNQKFKDKATLTVDKSSSTAYMELNSLTSEDSAVYYCARDSSNVGNAMDYWGQGTSVTVSS
VL: DIQMTQTTSSLSASLGDRVTISCRASQDISNYLNWYLQKPDGTIKLLIYYSSRLHSGVPSRFSGSGSGTDYSLTISNLEQEDIATYFCQQGYTLPRTFGGGTKLEIIR
B13: C129 (antibody, human IgG1, kappa, V domains shown)
VH: QVQLQQSGAELMTPGSSVKLSCKATGYTFTDYWIEWVKKRPGHGLEWIGEILPGYISTNYNEKFKDKATFTADTSSNTTYMQLSSLTSEDSAVYYCVLIVTTYYYFMDYWGQGTSVTVSS
VL: QIVLTQSPAIMSASPGEKVTITCSASSSVTYMHWFQQKPGTSPKLWIYSTSNLASGVPVRFSGSGSGTSYSLTISRMEAEDAATYYCQQRSSYPWTFGGGTKLEIKR
B14: C155 (antibody, human IgG1, kappa, V domains shown)
VH: EVQLVESGGGLVKPGGSLRLSCAASGFTFSDYYMYWVRQAPGKGLEWVATISDAGGYTYYPDSVKGRFTISRDNAKNSLYLQMNSLRAEDTAVYYCGREDLWGQGTLVTVSS
VL: DIQMTQSPSSLSASVGDRVTITCRASQDIGYSLNWFQQKPGKAPRRLIYATSRLDSGVPKRFSGSGSGTDFTLTISSLQPEDFATYYCLQYASFPYTFGGGTKLEIKR
B15: C154 (antibody, human IgG1, kappa, V domains shown)
VH: B14 VH with A49S, G97A
VL: B14 VL with R45K
B16: C156 (antibody, human IgG1, kappa, V domains shown)
VH: B14 VH with Y95F
VL: B14 VL with R45K

One assay has as its target T1, monkey antigen protein (monkey CD112R, …). Nature of the assay: ELISA, monkey antigen protein (as Example 6.1).
As for B1, the EC50 stood at 0.074 nM.
For the molecule B2, the response was half-maximal at 0.077 nM (EC50).
With B3, the EC50 came to 0.094 nM.
Still for that read-out and setting: the result for B4 reads 0.054 nM; that for B5, 0.09 nM.
Still for that read-out and setting: the result for B6 reads 0.052 nM; that for B7, 0.043 nM.
The same measure, in the same setting: the result for B8 reads 0.05 nM; that for B9, 0.059 nM.
The molecule B10 gave an EC50 of 0.08 nM.
The same measure, in the same setting: as for B11, the figure is 1.29 nM; as for B12, 0.077 nM.

The target in another assay is T2, human CD112R antigen protein …. Nature of the assay: ELISA, huCD112R-His coated on plate.
In turn, B1 gave an EC50 of 0.082 nM.
Still for that read-out and setting: the result for B2 reads 0.042 nM; that for B3, 0.038 nM; that for B4, 0.034 nM.
The same measure, in the same setting: as for B5, the figure is 0.054 nM; as for B6, 0.039 nM; as for B7, 0.032 nM.
Still for that read-out and setting: as for B8, the figure is 0.037 nM; as for B9, 0.033 nM; as for B10, 0.06 nM.
The molecule B11 gave a concentration giving a half-maximal response (EC50) of 0.056 nM.
The same measure, in the same setting: the result for B13 reads 0.034 nM; that for B12, 0.034 nM.

The target of the next assay is T3, human CD112R on GS-J2C/CD112R effector …. The experiment in a line: cell-based or functional assay.
For the molecule B1, the “EC50 (Blocking effects of the antibodies, reporter gene method)” value was 0.082 µg/mL.
Still for that read-out and setting: as for B3, the figure is 0.024 µg/mL.
On the same count and under the same terms, the result for B4 reads 0.039 µg/mL; that for B5, 0.023 µg/mL.
Still for that read-out and setting: the result for B6 reads 0.029 µg/mL.
As for B7, the “EC50 (Blocking effects of the antibodies, reporter gene method)” value is 0.032 µg/mL.
Turning to B8, the “EC50 (Blocking effects of the antibodies, reporter gene method)” value was 0.029 µg/mL.
Same read-out and setting: the result for B9 reads 0.015 µg/mL; that for B10, 0.03 µg/mL; that for B11, 0.052 µg/mL.
Turning to B14, the “EC50 (Blocking effects of the antibodies, reporter gene method)” value came to 0.082 µg/mL.
Same read-out and setting: the result for B15 reads 0.071 µg/mL; that for B16, 0.096 µg/mL; that for B13, 0.045 µg/mL.
The same measure, in the same setting: as for B12, the figure is 0.061 µg/mL.

A further assay concerns the target T2, human CD112R antigen protein …. The experiment in a line: SPR (Biacore X100), antibody captured on Protein A chip, huCD112R-His as analyte, 1:1 Langmuir. In general terms: In SPR one partner is held on a chip, and binding of the other changes the refractive index at the surface.
In turn, B1 showed a dissociation constant Kd of 0.274 nM.
In turn, B2 had a Kd of 0.0356 nM.
The same measure, in the same setting: the result for B3 reads 0.156 nM; that for B4, 0.8 nM.
The same measure, in the same setting: as for B5, the figure is 0.488 nM; as for B6, 0.55 nM; as for B7, 0.704 nM and 0.571 nM.
Take B8: the Kd amounted to 0.158 nM.
On the same count and under the same terms, as for B9, the figure is 0.243 nM.
Still for that read-out and setting: the result for B10 reads 0.02 nM; that for B11, 0.506 nM and 0.334 nM; that for B14, 0.603 nM.
On the same count and under the same terms, the result for B15 reads 0.724 nM; that for B16, 0.946 nM.
Consider B13, for which the dissociation constant (Kd) was 0.375 nM.
Still for that read-out and setting: the result for B12 reads 0.13 nM and 0.219 nM.

For the origin of these results see patent EP4644419A1 (Hangzhou Zhongmeihuadong Pharmaceutical Co., Ltd., dated 2025).
